Target: T1, His-tag fused human PJ01087 protein (Protein-Y) (human, UniProt O95886 1-979)
T1 construct: Used as 1% Triton-X supernatant of E. coli; also called His-PJ01087; not shown: N-terminal His-tag and linker encoded by vector pDEST17
T1 sequence: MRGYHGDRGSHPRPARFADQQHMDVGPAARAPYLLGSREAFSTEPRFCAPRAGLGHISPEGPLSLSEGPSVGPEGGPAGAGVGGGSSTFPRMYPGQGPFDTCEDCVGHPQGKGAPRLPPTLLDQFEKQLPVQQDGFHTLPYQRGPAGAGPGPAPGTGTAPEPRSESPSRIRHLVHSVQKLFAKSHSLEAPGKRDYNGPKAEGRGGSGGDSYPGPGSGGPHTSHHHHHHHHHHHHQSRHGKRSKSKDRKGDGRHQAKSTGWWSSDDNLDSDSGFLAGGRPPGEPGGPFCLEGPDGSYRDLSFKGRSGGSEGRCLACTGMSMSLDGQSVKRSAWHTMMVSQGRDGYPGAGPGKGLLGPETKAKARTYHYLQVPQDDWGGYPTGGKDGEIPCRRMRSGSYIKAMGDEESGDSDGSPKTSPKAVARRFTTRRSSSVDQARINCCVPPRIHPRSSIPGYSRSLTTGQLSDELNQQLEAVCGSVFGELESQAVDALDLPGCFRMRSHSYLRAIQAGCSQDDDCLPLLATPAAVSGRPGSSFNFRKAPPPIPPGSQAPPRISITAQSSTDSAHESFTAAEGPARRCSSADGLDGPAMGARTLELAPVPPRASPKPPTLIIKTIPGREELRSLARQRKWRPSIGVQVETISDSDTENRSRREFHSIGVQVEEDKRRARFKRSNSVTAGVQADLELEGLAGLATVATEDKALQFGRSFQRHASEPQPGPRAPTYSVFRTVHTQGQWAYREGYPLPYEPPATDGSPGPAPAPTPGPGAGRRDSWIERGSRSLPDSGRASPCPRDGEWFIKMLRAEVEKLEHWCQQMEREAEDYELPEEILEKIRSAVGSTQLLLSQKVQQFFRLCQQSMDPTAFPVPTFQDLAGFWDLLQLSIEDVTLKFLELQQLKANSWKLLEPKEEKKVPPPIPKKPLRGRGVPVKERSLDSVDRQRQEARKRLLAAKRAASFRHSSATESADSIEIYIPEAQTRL
Assay: Immunoprecipitation with anti-GST antibody and Protein G-sepharose, Western blot with anti-His-tag antibody
Experimental: After adding 1 μl of anti-GST antibody (SIGMA) and agitating for 1 hour at 4° C., a further 30 μl of Protein G-sepharose was added thereto, and agitation proceeded for an additional 6 hours at 4° C. Thereafter, the supernatant was removed by centrifugation, and Protein G-sepharose was washed three times with 500 μl of 1% Triton-X/20 mM Tris (pH 7.4). After the washes, 30 μl of 2× sample buffer (2% SDS/50 mM Tris (pH 6.8)/30% glycerol/0.01% bromophenol blue) containing 2-mercaptoethanol was added to Protein G-sepharose and mixed. The samples were boiled for 2 minutes, subjected to electrophoresis on a 5%-20% polyacrylamide gel, and transferred onto a PVDF membrane. Then Western blotting was performed with anti-GST antibodies and anti-His-tag antibodies.
However, when Protein-Y (His-PJ01087) was reacted with Protein-X (GST-hj02537) or the Protein-X mutant (GST-hj (GK−)) to perform immunoprecipitation with an anti-GST antibody followed by detecting with an anti-His-tag antibody, no band showing Protein-Y was detected. Thus, no result showing that binding of Protein-Y to Protein-X exists could be obtained (lanes 5 or 6 in FIG. 23).

binding result: no binding
B1: GST fused novel PSD (Protein-X) (hj02537) (other, not shown: a dimerising Fc or GST)
chain: MPALSTGSGSDTGLYELLAALPAQLQPHVDSQEDLTFLWDMFGEKSLHSLVKIHEKLHYYEKQSPVPILHGAAALADDLAEELQNKPLNSEIRELLKLLSKPNVKALLSVHDTVAQKNYDPVLPPMPEDIDDEEDSVKIIRLVKNREPLGATIKKDEQTGAIIVARIMRGGAADRSGLIHVGDELREVNGIPVEDKRPEEIIQILAQSQGAITFKIIPGSKEETPSKEGKMFIKALFDYNPNEDKAIPCKEAGLSFKKGDILQIMSQDDATWWQAKHEADANPRAGLIPSKHFQERRLALRRPEILVQPLKVSNRKSSGFRRSFRLSRKDKKTNKSMYECKKSDQYDTADVPTYEEVTPYRRQTNEKYRLVVLVGPVGVGLNELKRKLLISDTQHYGVTVPHTTRARRSQESDGVEYIFISKHLFETDVQNNKFIEYGEYKNNYYGTSIDSVRSVLAKNKVCLLDVQPHTVKHLRTLEFKPYVIFIKPPSIERLRETRKNAKIISSRDDQGAAKPFTEEDFQEMIKSAQIMESQYGHLFDKIIINDDLTVAFNELKTTFDKLETETHWVPVSWLHS
notes: Crude 1% Triton-X E. coli supernatant used for immunoprecipitation; also called GST-hj02537
